Consider 21 sequences from the DeepSol protein solubility set.

The data set can be described thus: soluble on expression in E. coli; label from the status in PepcDB or PDB records.
Turning to “MTRTETLELLVATLQQTNASQSESIRQLTRQNEQLQNKLDELLAQVAWLNRQLFGRKSEKLSRLDPNQLSLFEQPVQSLEPEPLEETVVEQTTTPMVTKKKERQNRKLLEGLPVVEVVIEPQDLDLTKYKRIGEEHTRTLEFEPGKLYVKEIIRPKYGLKDNTALPQEYQDGIVIADLPLLPIYKGLPGASLLAEILLQKYEYHVPFYRQIREFHHLGLKIPENTLHGWFKPACELLKPLYDELKKQVLAVDYIQVDETTLPIINKQSHKAVREYLWMVRAVTSGLVFFHYDDGSRSQETARNLLEPFKGYLQSDGYAAYNVFEGKERVCLVGCLVHIRRHYETAKEENKSQAKYVLAKIQELYRIEQAADIQGISPEMRMSKRQKQALPILDELEQWMETTYPKVLPKSQMGQAIAYAYTLWPRMRNYLKDGKLKIDNNLAENAIRPIALSRKNFLFCGNHEAAENTDVICSLLASCKASQVNPREWLTEIIAWLPYYTRDKGKDLKELLPNYWKLRRSKEI”, the “soluble on expression in E. coli” value is “not soluble”.

As to “MGSDKIHHHHHHLCRKDASQPSMYDLHRLGWNSFQQLCLTIAREVLAQSVKSFLDSNDGGRDGAFCGTWTPTKNETMSGSFVIQCKFTSKPNALLAKEDIAAELPKIRRLTEKGLCDVYVLMTNAGVSGKQEERIAAELTSAGAKNVLILGGTWITDQIRENTRLRTLVPRVYGLGDLSQILDERAYEQARAVLDSLREDLAKVVMTSAYRNAVDALDRHGFVLLIGEPAAGKTTIASMLAMASADKWKSSVLRKR”, the “soluble on expression in E. coli” value is reported as “not soluble”. Take “SLYATPIGYADTRFETAADAPRQGVETPYAANVQVYESFRGGLVGLEPDDRVVVVWWADDADRDVLAVRDGDRGVFTTRSPARPNPVCITPCELLAVDAADGTLAIRGWIWRTARRSWI”: the “soluble on expression in E. coli” value is “soluble”. “MIDSQGWYRLARKVPSPHCDVRHDSEDISLLVVHNISLPPGQFGGPYIEQFFLGELDANQHSFFKVIAKMRVSAHCVIRRDGEVVQFVPFHLRAWHAGVSSFAGRAKCNDYSIGIELEGSDFVPYTDAQYQALTELTQALMVRYPHITLPRITGHQYIAPLRKTDPGLVFDWRRFRAGLKS”: the “soluble on expression in E. coli” value is on record as “not soluble”. As to “MMIRGIRGATTVERDTEEEILQKTKQLLEKIIEENHTKPEDVVQMLLSATPDLHAVFPAKAVRELSGWQYVPVTCMQEMDVTGGLKKCIRVMMTVQTDVPQDQIRHVYLEKAVVLRPDLSLTKNTEL”, the “soluble on expression in E. coli” value is listed as “soluble”. “MPNLPALPDMGLPVVTSDLTATLLPGVASPIVPGQPIEQAFSSILISMMKSDQAIEDDTENPAPVSIDALIAGMIAAPANPPQLVPSQPAPDALDTPNAPDAPAEELLSMLATSMMPNTGQPVTDEPVTFPAGGLASATPPNLPSDSGRHAADPLQTTSQAHAAPLPAELPAGNISTSTPFPAPVNSFNQAIDAANFADSGKSLPPSMTSVPVTPVAAHTSSTPLTDIAADTTANDAPAIAAEFGQPDWPEEFGRKITWLATQRMQAAELKLHPAHLGPIEISLQLSDDQRLTAQFISHHPAVREAIEANLPRLREIMAENGITLADTSVSADTPGQQAENRQGSPFRRPAAGDHSTYDSTSPQTPALQATRRSSLIDTFA”: the “soluble on expression in E. coli” value is listed as “not soluble”. Take “MEKSWYVVHTYSGYENKVKANLEKRVESMGMQDKIFRVVVPEEVEVEMKNGKEKLMKRKVFPGYVLVELIMTDDSWYVVRNTPGVTGFVGSSGSGSKPSPLLEEEVVTIMKHMGMDNEVVDFDFELHETVRVNEGPFADYTGAIEEIDVEKKKVSVLVDMFGRETPVELDFHQIEKL”: the “soluble on expression in E. coli” value is recorded as “soluble”.

Turning to “MSENSNQFLDALKQMQGVEVGDIVDVEVLDVEDGQIDVGVENAGVEGVITRREYTSDRNADLRDLVKPGDKFKALVLRRAGGDKENGEFFFSVTRLKEREAFDKLQKDFEEGNAIEGTVTSSVRGGLLVDVGTRGFLPASLISNRYVSDLKPYIGKTMKLKITEIDPNKNRLILSHKDLVEEEREEAFDKVASQLVVGDVVEGKVSRLTNFGSFIDVGGVDGLVHISEISYKHVDKPSDVLKVGQDVKVKVIGIDNDRHRISLSIKQTEPSPFEQATADLNEGDIFEGEVKSLTNFGAFVEVADGIQGLVHVSEISNKHVDKPSDVLKVGQTVKVKVLNIDPNDRRISLSIKAADSNSSSSDNHNSRPRRSRNENTVNKKYMSDNDNGFALGDIIGDQLKDRKLEHHHHHH”, the “soluble on expression in E. coli” value is “soluble”. Regarding “MGSDKIHHHHHHMISAEQLVFTYHDQKNPACQISTCQIASGQFIVLCGPSGSGKSTFLKLLNGIIPDYYAGKYEGRLDVADCQAGRDSVETFSRSVASVFQNPASQFFYREVQHELVFPCENQGLDAKVIMKRLWTLAEDFAFAELLNKDMFGLSGGQKQRVAIATAIMQGTNIMLFDEPTANLDSAGIAAVKAYLTQLKAAGKTIIVAEHRLHYLMDLADNFFYFKNGRLTDKLTTQNLLALTDEQRQDMGLRRLDLSDLKPVLAGKIESQHYRPDDSLCIEHLTVRAGSKILRCIEQLSFAVGSISGITGSNGLGKSQLVYYIAGILDDKKATIKFQGIPLSAKQRLSKTSIVLQEVSLQLFAESVSKEVNLGHERHPRTTEVIERLSLTTLLERHPASLSGGEQQRVMIAASLLADKDILIFDEPSSGLDLLQMKALANLLMQLKTQHKVVILISHDEELLSSVCDTIYQMLP”, the “soluble on expression in E. coli” value is on record as “not soluble”.

Take “MNYYMHHIGDYKSDASYLSLQEHGIYFLLLSHYYATEKPIPADKTHTYRIAYARTKKEKSAVDFVLDTFFSLQEDGWHNKRCDEEIAAYKEGDAWHEHKEANKNGQNTRTRRHRKERSRLFAELKDHQVTPEWNMPIKELRLLHKKTCHAPVTAVTPPVTPVTPVTPVTPVTPTQEESFTGPSSSLRSEERLIRAENETSIKELRQWNAKTNAKTGNAPVTAVTAKPLTINPLTIISSSLCSEESLVFAEDGNATGSTGKPKRSPHGSRLPDD”: the “soluble on expression in E. coli” value is “not soluble”. In the case of “GGSVIVIDSKAAWDAQLAKGKEEHKPIVVDFTATWCGPCKMIAPLFETLSNDYAGKVIFLKVDVDAVAAVAEAAGITAMPTFHVYKDGVKADDLVGASQDKLKALVAKHAAA”, the “soluble on expression in E. coli” value was “soluble”. For “SPPIGNQLGALVHQRTVITEEFKVPDKMVGFIIGRGGEQISRIQAESGCKIQIASESSGIPERPCVLTGTPESIEQAKRLLGQIVDRCRNGPGFHNDIDSNSTIQEILIPASKVGLVIGRGGETIKQLQERTGVKMVMIQDGPLPTGADKPLRITGDAFKVQQAREMVLEIIREKDQADFRGVRGDFNSRMGGGSIEVSVPRFAVGIVIGRNGEMIKKIQNDAGVRIQFKPDDGISPEYYRQQVAFYGQTLGQAQAHSQEQ”, the “soluble on expression in E. coli” value was “soluble”. To “METALVSIIMPMYNAGKFLSKSIESVLEQTYQNWELLLIDDGSKDDSIDIALAFMEKDSRIFLLKNEQNMGIAKTRNKGIEASKGQYIAFLDSDDLWLPNKLEVQVKWMEEKKLLFTCSSYFVCNENGNITHERNFSEGPQTYQDLLKTNTIGCLTVVVESNLLKRHLMPDLKHEDYATWLNILKEINTVYFINEKLAIYRKLTTSTSSNKWNTISWVWKILRQNEQFSVIKSSFYLMRFLFYTTFKYAKNELEHHHHHH” belongs “soluble”; to “MSLENNNEIFKEKSRENFNKTADIYDESHDGKFVAPMYDEIIKRILRANPKTVLDVGCGTGNVLKILAKDENLSLYGLDLSEKMIEIAKKNLKGRAELKLGDSENMPWKSNSFDVIVCNASFHHYPNPKKVLIEMKRILKKDGTLIIGDPTAPVIYRQILNLYCKISNKGDYKLYSKKEIENIMKECGFEPFNFIHINHGSFAVNAKIREGHHHHHH”, “soluble”; to “MHTNERKTVVYEYQNEQEVVMKVKELELQGVRHDDIYVLAHEKHITKRIADDTNTNTIGVKEQGLGTSIINFFSKKGDELRNQMEEMGLSKEEANLYEEKLDQGKILLLVTAEVPMANDRQPQNYHSL”, “not soluble”. With “MGSDKIHHHHHHMERNTRVVKVANLKIGGNNPIIIQSMTNTNSADVEATVKQINNLEKVGCQLVRMTINNIKAAEAIKEIKKKVSLPLVADIHFDYRLALLAIKNGIDKLRINPGNIGSDENVKKVVEAAKEKNIPIRIGVNSGSIEKEILEKYGKPCVDALVESAMYHIRLLEKFDFFDIIVSLKSSNVKMMVEAYRKISSLVDYPLHLGVTEAGTKFQGTVKSAIGIGALLVDGIGDTLRVSLTENPVEEIKVAKEILKVLDLSDEGVEIISCPTCGRTEIDLIGLAKQVEEEFRTKKNKFKIAVMGCVVNGPGEAREADYGIAAGRGIGILFKKGEIIKKVSESNLLEELKKMISEDLENKKD”, the “soluble on expression in E. coli” value is “not soluble”. With “MAHHHHHHMKQIDQLIIEEADENTIIPYYLSNLLTNASNPVVFMDVNLGNHFLGKFKFELFQNIVPKTSENFRQFCTGEYKVNNLPVGYKNTTFHRVIKEFMIQGGDFVNYNGSGSLSIYGEIFEDENFDVKHDQEGLLSMANSGPNTNGCQFFITTKKCEWLDGKNVVFGRIIDSDSLILLKKIENVSVTPYIYKPKIPINIVECGEL”, the “soluble on expression in E. coli” value is recorded as “not soluble”. Turning to “MGSDKIHHHHHHMSIRIGNAPCSWGVEFADDPRNPTWRSVLKDCAEAGYKGIELGPVGFMPEDPVELGEALAEHDLDLIGGVVFRAYHDPAAWEDVVDATHRTARALRAHGAQHLVLIDSISPRRAPTAGRAAEAEQMDKAEWTAYRNRIAESARIGAEEYGLTVGIHAHAAGFMDFEPELERLLSEVDESLLKICFDTGHHSYAGFDPVAFMKRHVGRISYMHFKDIDPKVKAEVIANRTGFYEACGQGIFCNLGLGDVDFPAVRQVLLEAGFAGWCTVEQDCDPTLDPDPVGDALKNREYLETIGFN”, the “soluble on expression in E. coli” value is on record as “not soluble”. On to “MISVMQQMINNDSPEDSKESITSVQQTPFFWPSAAAAIPSIQGESRSERESETGSSPQLAPSSTGMVMPGTAGMYGFGPSRMPTANEFGMMMNPVYTDFYQNPLASTGWYSYGQPYQFTANYSIPSLDGNLSDITIPTTAGSSAATTPNAAMHLPWAISHDGKKKRQPYKKDQISRLEYEYSVNQYLTNKRRSELSAQLMLDEKQVKVWFQVCYRQYSAESLEIINVNFYLMS”, for which the “soluble on expression in E. coli” value is “not soluble”. Turning to “MSLSASQTSDVPTLLVKIFGKDRPGITAGLFDTLAAYSVDVVDIEQVVTRGRIVLCALVTEPPRGLEGDLRATVHSWAESLKLQAEIISGIGDNRPRGFGRSLVTVLGHPLTAEATAAIAARITESGSNIDRIFRLAKYPVTAVEFAVSGVETEPLRTALATEAAALGVDIAVVAAGLHRRAQRLVVMDVDSTLIQDEVIELFAAHAGCEDEVAEVTAAAMRGELDFEQSLHARVALLAGLDASVVDKVRAEVRLTPGARTLIRTLKRLGYQVGVVSGGFTQVTDALQEQLGLDFAQANTLEIVDGRLTGRVTGEIVDRAGKARLLRRFAAAAGVPLSQTVAIGDGANDLDMLNAAGLGVAFNAKPVVREAAHTAVNVPFLDTVLYLLGITREEVEAADTLADDLGDGPGREGHHHHHH”, the “soluble on expression in E. coli” value is “soluble”. Consider “MGSDKIHHHHHHMSLLVRAAALTNYCEVARAGGLDPLRMMFDAGISPSVLREPDLMIQVDRFGRLLQTSATLSGNESFGLSMAESRLLSNLGPVGMLIRDQATLRDALGMLMRYQSILNGAKSLAVDECGGRVIIREVLIAGSAHQPTRQRVELALGVMVRLIRQLIKPDWQPQRVCFEHPAPRDLSTHQRFFGPNVAFNCDFNGIVCAKSDLDARNPWADPAMARYAQRLIDESAAARQTTMLEDVRRTILLLLPGGRCSVEQVAENLGVVCRTVQRRLAEQGQSFSSVVNDIRVELAMRHVVESDRPFTEVATLLGFSAPSGFSRWYQTQFGCSPKESRAASAAVGERVTETPSPARSSPTVRPLSRG”, for which the “soluble on expression in E. coli” value was “not soluble”.
